Reference: the supplement of paper PMC10126150
± gives the standard deviation of the averaged measurements.

Test system: ATP
Test: switch fluorescence ratio, 500 uM ATP over buffer (Cy3 cluster intensity, sum of 5 cycles each) (fold (ratio)); higher = stronger signal-on switching upon ATP binding; sequences stand for … in TCGTCGGCAGCGTCAGATGTGTATAAGAGACAGTTTTTTTTTTTTTTTTTTTTTTTTT…TC
Settings: aptamer strand: ATP DNA aptamer (quencher-CACCTGGGGGAGTATTGCGGAGGAAGG + anchor), 100 nM annealed; ATP concentration: 500 uM
Outline: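 For every switch-domain sequence, the fluorescence ratio is the mean of per-cluster values, each being summed target-cycle Cy3 intensity over summed buffer-cycle Cy3 intensity. Clusters outside 100-1000 RFU were excluded. On a modified Illumina MiSeq flow-cell, the Cy3-labelled switching-strand clusters were annealed to 100 nM quencher-labelled ATP aptamer, imaged in selection buffer and then after 15 min with 500 uM ATP at 22 °C. Five such cycles were run, with NaOH stripping and re-annealing between them.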
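Also: ATP exposure 15 min at 22 °C before imaging.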

| Sequence | switch fluorescence ratio |
| --- | --- |
| CATACGGTTT | 1.05 ± 0.024 |
| CATACGTCTG | 1.04 ± 0.017 |
| CATACTCAGA | 1 ± 0.045 |
| CATAGAGGGT | 0.951 ± 0.03 |
| CATAGAGTGT | 1 ± 0.021 |
| CATAGATTTT | 0.98896 ± 0.00042 |
| CATAGCTTTT | 1.01 ± 0.012 |
| CATAGGAGAC | 1 ± 0.017 |
| CATAGGGAGA | 1.006 ± 0.0042 |
| CATAGGGGAG | 1.042 ± 0.01 |
| CATAGGTCTA | 0.996 ± 0.019 |
| CATAGTGATG | 0.986 ± 0.026 |
| CATATATCAT | 1.008 ± 0.0095 |
| CATATATTT | 0.975 ± 0.015 |
| CATATCATGG | 0.988 ± 0.037 |
| CATATGAGGG | 0.991 ± 0.07 |
| CATATGCGTA | 0.9857 ± 0.0015 |
| CATATGTGCG | 0.992 ± 0.023 |
| CATATTCCTA | 0.999 ± 0.035 |
| CATATTCGGC | 0.988 ± 0.061 |
| CATATTGGAT | 1.02 ± 0.036 |
| CATATTTA | 0.992 ± 0.02 |
| CATATTTCGC | 1.03 ± 0.029 |
| CATATTTGAC | 1.04 ± 0.074 |
| CATCACATGT | 1 ± 0.018 |

| Sequence | switch fluorescence ratio |
| --- | --- |
| CATCATGTGT | 0.9714 ± 0.0043 |
| CATCCGGCGG | 1.17 ± 0.038 |
| CATCGAGATG | 1.01 ± 0.014 |
| CATCGAGCAA | 3.77 ± 3.5 |
| CATCGCTGTG | 0.998 ± 0.039 |
| CATCGGGGTC | 1.07 ± 0.021 |
| CATCGTGTGT | 0.972 ± 0.011 |
| CATCTACTGG | 1.01 ± 0.018 |
| CATCTAGGGG | 0.999 ± 0.061 |
| CATGAAACAT | 1.06 ± 0.048 |
| CATGAATGGT | 0.962 ± 0.022 |
| CATGACATTT | 1.06 ± 0.028 |
| CATGACGAAT | 1.03 ± 0.026 |
| CATGAGAAGG | 1.0186 ± 0.001 |
| CATGAGGTTC | 0.974 ± 0.03 |
| CATGAGTAGG | 0.979 ± 0.016 |
| CATGATAGGG | 1.01 ± 0.031 |
| CATGATAGGT | 0.975 ± 0.057 |
| CATGATCCGT | 1.008 ± 0.0093 |
| CATGATCTCT | 0.987 ± 0.071 |
| CATGATGTGT | 1 ± 0.042 |
| CATGATGTTC | 1.02 ± 0.021 |
| CATGATTAAT | 0.962 ± 0.033 |
| CATGATTAGT | 0.951 ± 0.041 |
| CATGCACTAT | 1.08 ± 0.021 |

| Sequence | switch fluorescence ratio |
| --- | --- |
| CATGCCAGTG | 1.049 ± 0.0013 |
| CATGCGGGGG | 1.01 ± 0.013 |
| CATGCGTAAA | 1.238 ± 0.0069 |
| CATGCTTTCC | 1.17 ± 0.26 |
| CATGCTTTCT | 0.9836 ± 0.0079 |
| CATGGCAACC | 1.158 ± 0.0094 |
| CATGGGAGAC | 0.986 ± 0.022 |
| CATGGGCAG | 0.992 ± 0.034 |
| CATGGGCTAG | 0.997 ± 0.057 |
| CATGGGGGAT | 1.01 ± 0.035 |
| CATGGGGGGT | 0.994 ± 0.014 |
| CATGGTCATT | 1 ± 0.019 |
| CATGGTCTCA | 1.017 ± 0.0017 |
| CATGGTGTGG | 1.01 ± 0.031 |
| CATGGTTCGT | 0.975 ± 0.025 |
| CATGGTTGGT | 0.969 ± 0.025 |
| CATGTATTAT | 0.985 ± 0.034 |
| CATGTCACGG | 1.06 ± 0.039 |
| CATGTGCGTG | 1 ± 0.022 |
| CATGTGGGGT | 0.992 ± 0.034 |
| CATGTGTTGT | 0.987 ± 0.014 |
| CATGTTAGGT | 1.01 ± 0.025 |
| CATGTTAGTA | 1.02 ± 0.021 |
| CATGTTCGGG | 0.971 ± 0.012 |
| CATGTTGATG | 1.0056 ± 0.00049 |

| Sequence | switch fluorescence ratio |
| --- | --- |
| CATGTTGGAG | 0.9924 ± 0.0053 |
| CATGTTGGGT | 1.008 ± 0.007 |
| CATGTTTAGG | 0.986 ± 0.017 |
| CATGTTTGGT | 0.987 ± 0.013 |
| CATTAAAGTA | 1.1 ± 0.021 |
| CATTAACGAG | 1.013 ± 0.0062 |
| CATTAACGGG | 1.02 ± 0.013 |
| CATTAAGGGC | 0.962 ± 0.04 |
| CATTAAGTGT | 0.9713 ± 0.0034 |
| CATTAGCTGG | 1.03 ± 0.002 |
| CATTAGGATA | 1.0153 ± 0.00044 |
| CATTAGGATG | 0.9941 ± 0.0021 |
| CATTAGGGGT | 0.978 ± 0.012 |
| CATTATATGT | 1.01 ± 0.046 |
| CATTATTAAA | 0.976 ± 0.025 |
| CATTATTGTT | 0.999 ± 0.033 |
| CATTCGGGTG | 1.11 ± 0.027 |
| CATTCTTCGC | 1.15 ± 0.029 |
| CATTGACCGC | 1.09 ± 0.014 |
| CATTGACTTT | 1.02 ± 0.016 |
| CATTGAGCGG | 1 ± 0.018 |
| CATTGAGGGT | 0.968 ± 0.052 |
| CATTGATTTT | 1.013 ± 0.0022 |
| CATTGCGATC | 2.08 ± 0.3 |
| CATTGGGCGA | 0.982 ± 0.022 |

| Sequence | switch fluorescence ratio |
| --- | --- |
| CATTGGGGGT | 1.04 ± 0.021 |
| CATTGGGTTT | 0.975 ± 0.052 |
| CATTGGTGAG | 0.992 ± 0.032 |
| CATTGGTGGT | 0.989 ± 0.0039 |
| CATTGTAAGA | 0.962 ± 0.043 |
| CATTGTATCG | 1.01 ± 0.011 |
| CATTTACCAT | 1.03 ± 0.014 |
| CATTTAGCTC | 1.07 ± 0.015 |
| CATTTATAAG | 0.977 ± 0.013 |
| CATTTATATT | 0.986 ± 0.032 |
| CATTTCAGTG | 0.988 ± 0.025 |
| CATTTGATCC | 0.978 ± 0.0026 |
| CATTTGGGTA | 1.01 ± 0.014 |
| CATTTGTGGG | 0.993 ± 0.017 |
| CATTTGTGTT | 1.02 ± 0.046 |
| CATTTTATAT | 1.02 ± 0.012 |
| CATTTTGAGC | 0.996 ± 0.014 |
| CATTTTGCGT | 0.972 ± 0.035 |
| CATTTTGGGC | 0.992 ± 0.041 |
| CATTTTTGGA | 1.003 ± 0.0076 |
| CATTTTTTTA | 0.96084 ± 0.00082 |
| CCAAGCCTGT | 1.007 ± 0.0098 |
| CCAAGCGTGC | 1.76 ± 0.64 |
| CCAAGCTGAA | 1.22 ± 0.035 |
| CCAAGGTGGA | 1.1 ± 0.12 |

| Sequence | switch fluorescence ratio |
| --- | --- |
| CCAAGGTGGG | 1.1 ± 0.016 |
| CCAATAAGGG | 0.994 ± 0.048 |
| CCAATAGGCA | 1.046 ± 0.0078 |
| CCAATGGCAG | 1.155 ± 0.0045 |
| CCAATGTTTT | 0.98 ± 0.016 |
| CCACACCATT | 1.058 ± 0.004 |
| CCACAGTGTT | 1.61 ± 0.1 |
| CCACCATTTT | 1.13 ± 0.12 |
| CCACCGGGGA | 1.85 ± 0.49 |
| CCACCGGTAT | 1.69 ± 0.048 |
| CCACCTATCA | 1.07 ± 0.031 |
| CCACCTGGCG | 1.29 ± 0.017 |
| CCACGATTAA | 1.003 ± 0.008 |
| CCACGCTCGC | 2.33 ± 0.21 |
| CCACGGGGTT | 1.06 ± 0.072 |
| CCACGTGAGG | 1.03 ± 0.012 |
| CCACTAGGGC | 1.09 ± 0.017 |
| CCACTGGGTG | 4.394 ± 0.031 |
| CCAGAACGAA | 1.037 ± 0.0099 |
| CCAGAATTCG | 0.98 ± 0.024 |
| CCAGACGCGG | 1.14 ± 0.051 |
| CCAGAGGCTA | 1.1475 ± 0.00019 |
| CCAGCGGTTG | 1.025 ± 0.004 |
| CCAGCTGCGG | 1.01 ± 0.022 |
| CCAGCTGGGT | 1.0117 ± 0.0005 |

| Sequence | switch fluorescence ratio |
| --- | --- |
| CCAGCTGGT | 1.02 ± 0.042 |
| CCAGCTTTTA | 1.09 ± 0.052 |
| CCAGGCAAGG | 1.18 ± 0.019 |
| CCAGGCGATG | 1.05 ± 0.005 |
| CCAGGCGCTA | 1.611 ± 0.014 |
| CCAGGCGTAT | 1.032 ± 0.0023 |
| CCAGGGCGGG | 0.99 ± 0.043 |
| CCAGGGGAAG | 0.996 ± 0.017 |
| CCAGGGGGAT | 1.97 ± 1.3 |
| CCAGGGTATC | 1.064 ± 0.0063 |
| CCAGGGTTGT | 1.11 ± 0.037 |
| CCAGGTAACA | 1.03 ± 0.012 |
| CCAGGTATTT | 1.1 ± 0.016 |
| CCAGGTCGAC | 1.02 ± 0.063 |
| CCAGGTGTTG | 3.12 ± 0.44 |
| CCAGTAGGAG | 1.07 ± 0.051 |
| CCAGTAGTCT | 1.05 ± 0.019 |
| CCAGTTAAGA | 0.989 ± 0.024 |
| CCAGTTCGGA | 0.981 ± 0.059 |
| CCAGTTGGGA | 1 ± 0.032 |
| CCATACGTAG | 1.035 ± 0.0066 |
| CCATCAAATA | 1.01 ± 0.015 |
| CCATGAACAT | 1 ± 0.028 |
| CCATGCCACA | 1.05 ± 0.029 |
| CCATGGAGGT | 1.01 ± 0.034 |

| Sequence | switch fluorescence ratio |
| --- | --- |
| CCATGGGAAA | 0.961 ± 0.03 |
| CCATGGGGGG | 1.11 ± 0.18 |
| CCATGTTTGG | 0.996 ± 0.028 |
| CCATTAATTT | 1.11 ± 0.17 |
| CCATTACGTT | 1.04 ± 0.05 |
| CCATTATAT | 0.982 ± 0.043 |
| CCATTGAGAC | 1.04 ± 0.029 |
| CCATTTGCGG | 1.001 ± 0.0088 |
| CCATTTTGTT | 0.984 ± 0.015 |
| CCATTTTTTA | 0.9825 ± 0.0097 |
| CCCATGCTTA | 1.046 ± 0.003 |
| CCCATGGACT | 1.034 ± 0.0088 |
| CCCCAAGACG | 0.997 ± 0.011 |
| CCCCATTTTA | 1 ± 0.018 |
| CCCCCCGGGG | 1.61 ± 0.32 |
| CCCCTGACAA | 1.79 ± 0.059 |
| CCCCTGTACT | 1.227 ± 0.0074 |
| CCCGAGGGGT | 1.019 ± 0.0065 |
| CCCGAGTGGG | 0.992 ± 0.054 |
| CCCGCATGAT | 5.66 ± 0.2 |
| CCCGCGGTTA | 1.23 ± 0.032 |
| CCCGGAGGCC | 0.961 ± 0.034 |
| CCCGGCATCT | 1.2197 ± 0.00016 |
| CCCGGGAATC | 1.06 ± 0.059 |
| CCCGGGATAT | 1.06 ± 0.056 |
